Measured values as given in US12636342B2, “TARS derived from Akkermansia muciniphila or fragment thereof, and use thereof” (KOREA RESEARCH INSTITUTE OF BIOSCIENCE AND BIOTECHNOLOGY, priority 2020, dated 2026).
“Also recorded” adds a separate entry of the source.

Assays:
[1] = tested on: mouse model of dextran sulfate sodium (DSS)-induced colitis; assay: DSS-induced colitis (inflammatory bowel disease) mouse model, intraperitoneal administration; type: in vivo; settings: for distribution of B cells in the colon: normal mice
Protocol: We evaluated the anti-inflammatory function of AmTARS in a mouse model of dextran sulfate sodium (DSS)-induced colitis. First, we assessed dose-dependent responses (i.e., changes in body weight and colon length) to intraperitoneal (i.p.) administration of AmTARS (0.05-0.4 mg/kg) once every other day for 10 days (FIG. 10A).
The disease activity score was calculated by adding up scores ranging from 0 to 4 points for each item of bloody stool, diarrhea, and weight loss, and the epithelial damage score was calculated by assigning 0 to 4 points according to the degree of colon tissue damage.
Next, to measure IgA, mouse feces were collected and diluted in PBS containing a protein inhibitor, and then a supernatant with impurities removed was obtained, and 100 μL was placed in each well of a 96-well plate to perform protein coating at 4° C. for 2 h. The plate was washed three times with a washing solution (50 mM Tris, 0.2% in PBS) and then incubated with 100 μL of blocking solution at room temperature for 1-2 h, followed by washing. HRP conjugated IgA antibody (1:30000) was added and then incubated at room temperature for 1 h, followed by washing. Thereafter, 100 μL of a substrate solution was added, followed by incubation for 30 min, and then 50 μL of a stop solution was added, followed by measurement at 405-450 nm by an ELISA reader. […]

BMDMs = assay: M2 macrophage polarization in BMDMs (CD206 flow cytometry); type: cell-based, mouse
Protocol: Since M2 macrophage polarization precedes production of anti-inflammatory cytokines such as IL-10, we assessed the effects of AmTARS on macrophage polarization. BMDMs were treated with PBS (negative control), LPS (to induce M1 polarization), or IL-4/IL-13 (to induce M2 polarization [positive control]) in the absence and presence of AmTARS, and the resulting M2 macrophage population was measured by flow cytometry using an antibody specific for the M2 macrophage surface marker CD206.

[2] = tested on: B cell-deficient μMut mice; assay: DSS-induced inflammatory bowel disease in B cell-deficient μMut mice; type: in vivo, mouse
Protocol: To determine whether the inflammatory bowel disease alleviation effect induced through the secretion of IL-10 cytokine by AmTARS corresponded to a B cell-mediated effect, DSS was administered to B cell-deficient μMut mice (μ heavy chain mutation mice, B cell depletion mice) by way of the same method as in Example 5 to induce inflammatory bowel disease, and AmTARS was administered.

[3] = tested on: inflammatory bowel disease mouse model; assay: DSS-induced inflammatory bowel disease mouse model, intramuscular injection; type: in vivo
Excerpt: Further, AmTARS was intramuscularly injected into the mouse model to confirm the anti-inflammatory efficacy thereof.

[4] = tested on: mouse bone marrow-derived macrophages (BMDMs); assay: ELISA of immune cytokine secretion in BMDMs under normal conditions; type: cell-based; settings: normal (non-inflammatory) conditions, 24 h
How it was run: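 Mouse BMDMs from femur and tibia were cultured in DMEM with 10% FBS. Cells were treated with AmTARS at 0.1, 0.2 or 0.5 μM for 24 h. Cell-free supernatants were assayed by ELISA for mouse IL-6, IL-10 and TNF-α.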

[5] = tested on: peritoneal macrophages from TLR2-KO mice; assay: M2 macrophage polarization in TLR2-KO mice under non-inflammatory conditions; type: in vivo, mouse; settings: 24 h
Protocol: (A and B) AmTARS interacts directly with TLR2. Pull-down assay using lysates of HEK 293T cells transfected with Strep-AmTARS and TLR2-FLAG (A). The proteins precipitated by an anti-Strep antibody were analyzed by western blotting. In vitro interaction assay using purified TLR2-FLAG and His-tagged AmTARS proteins (B). Purified TLR2-FLAG was mixed with purified His-tagged AmTARS protein. His-tagged protein was precipitated by Ni-NTA, eluted, and analyzed by SDS-PAGE. (C) TLR2-dependent anti-inflammatory function of AmTARS in BMDMs (n=6 per group). (D) The unique regions within AmTARS are essential for anti-inflammatory function in a TLR2-dependent manner (n=8 per wild-type group and n=6 per TLR2 KO group). BMDMs from WT or TLR2-KO mice were treated with the indicated proteins (C and D). (E-I) TLR2-dependent function of AmTARS in vivo. WT or TLR2-KO mice with DSS-induced colitis were injected with either PBS or AmTARS. Daily changes in disease activity scores (E). Intestinal epithelial damage, as analyzed by H&E staining (F), and damage scores (G) (n=3 per group). […] After 24 h, PECs were isolated, and the percentage of M2 macrophages (CD206+CD11b+F4/80+) was measured by flow cytometry. […] P-values were calculated by an unpaired two-tailed Student's t-test.

[6] = DSS-induced colitis mice, i.p., AmTARS 0.2 mg/kg
[7] = DSS-induced colitis mice, particularly proximal colon, versus control mice
[8] = i.p. 0.05-0.4 mg/kg once every other day for 10 days
[9] = inflammatory bowel disease mouse model
[10] = normal mice (control of B cell-deficient experiment)
[11] = intramuscularly injected at 0.4 mg/kg or more

B1: Akkermansia muciniphila-derived threonyl-tRNA synthetase (TARS) (protein)
chain: MSEHKERKTLEERQQMSDLERLRHSCAHVLATAICRLWPDAQLAGGPAVDNGFYYDVELDHRISTEDFERIEEEMKKVVKENQVFQKEVISRADAMKMAESGELGALGPRSEPSRFKIDLLNDIPEDEEISLYRNGDFTDLCAGPHVGRTGNCKAFKIMSVASAFYKGDKNRPMLQRIYGTCFPNRTQLDEHLERLEEARRRDHRKLGRELGLFCIDESVGQGLILWKPKGALIRRSLQDFITEELDKLGYSQVYTPNIGKLDLYRTSGHFPYYQESQYAPIPERDAMEKLSQEGASCAELFNGLATGTIEGYMLKPMNCPHHIKIYANDAHSYRDLPVRLAEFGTVYRWEQSGELGGMTRVRGFTQDDAHIFCTPDQLAGEIRQCLGIVKTIFGTLGMTDYRVRLSMRDPESDKYVGSPENWDKAEQALREAAEWLGADYSEEAGEAAFYGPKIDFIVRDAIGREWQLGTVQVDYNLPERFDLHYTGADNKPHRPVMVHRAPFGSMERFTGLLIEHFEGKFPTWLSPEQVRVLPISDKVTDVAAAHRTALAARGVRVTVDETPDKIGAKIRNARLDRVPYMLVLGQREAEDGTVSVRHRDKGDLGAMPFEQFADLVAREIAERHISPVI
modifications: Akkermansia muciniphila TARS
- therapeutic effects on colitis pathology ([1]; AmTARS 0.2 mg kg-1 versus mIL-10 0.02 mg kg-1): comparable with those of IL-10
- IL-10-positive macrophage (CD11b+F4/80+IL-10+) numbers within colonic cells ([1]; DSS-induced colitis mice): restored
- IL-10 levels in serum ([1]; DSS-induced colitis mice): increased
- body weight loss [1, 6]: ameliorated
- colon shortening / shortening of the intestine [1, 6]: ameliorated
- disease activity scores [1, 6]: ameliorated
- disruption of the epithelial lining [1, 7]: significantly lower
- epithelial damage score [1, 7]: significantly lower
- colitis-induced infiltration of inflammatory monocytes (CD11b+F4/80−) ([1]; colon cells, DSS-induced colitis mice): significantly suppressed
- body weight loss ([1]; i.p. 0.4 mg/kg, up to 7 days): significantly attenuated
- body weight loss, dose response [1, 8]: attenuated body weight loss and colon shortening in a dose-dependent manner
- colon shortening, dose response [1, 8]: attenuated body weight loss and colon shortening in a dose-dependent manner
- secretion of the cytokine IL-10 in the mouse plasma [1, 9]: increased the secretion
- distribution of B cells in the colon [1, 9]: increase in B cells
- distribution of B cells in the colon ([1]; inflammatory bowel disease mouse model, listed as TARS): significantly increased
- amount of IgA increased due to an inflammatory response ([1]; mouse feces, ELISA): reduced the amount of IgA
- colon tissue damage due to inflammatory bowel disease [1, 10]: alleviated
- intestine length reduction due to inflammatory bowel disease [1, 10]: alleviated
- M2 polarization (CD206+) (BMDMs; LPS-treated BMDMs (M1 polarization)): significantly re-polarized LPS-induced M1 macrophages to M2 macrophages
- M2 polarization (CD206+) (BMDMs; PBS-treated BMDMs): activated M2 polarization
- increase in B cells [2]: could not be shown
- damage to intestinal epithelial cells ([3]; intramuscular injection): alleviate the damage to intestinal epithelial cells
- intestinal length of the mouse model [3, 11]: efficacy of decreasing the weight and intestinal length
- weight of the mouse model [3, 11]: efficacy of decreasing the weight and intestinal length
- secretion/production of IL-6 [4]: not secreted; also recorded: no effect
- secretion/production of IL-10 [4]: increased in a dose-dependent manner; also recorded: significant increase; also recorded: induced production; also recorded: specific to AmTARS
- secretion/production of TNF-α [4]: not secreted; also recorded: no effect
- M2 macrophage polarization of peritoneal macrophages ([5]; TLR2-KO mice, non-inflammatory conditions): did not cause M2 macrophage polarization
- M2 macrophages in PECs isolated from TLR2-KO mice (FIG. 28K) ([5]; TLR2-KO): no M2 macrophages were observed
